Test results published in article PMC4474691, “Leukemia-Associated Mutations in Nucleophosmin Alter Recognition by CRM1: Molecular Basis of Aberrant Transport” (PLoS ONE, 2015).

Target: T1, wild type nucleophosmin (NPM) (human, UniProt P06748 1-294)
T1 construct: human nucleophosmin, full length, wild type, pentameric; also called NPM1; B23; source: E. coli BL21 (DE3), purified (Ni-NTA, TEV, second Ni-NTA, Superdex 200); not shown: (His)10-ZZ, N-terminal, cleaved
Assay: ITC; importin α, importin Δα or importin α/β at 45–60 μM titrated onto NPM (1–1.2 μM pentamer); 50 mM Tris/HCl pH 7.5, 100 mM NaCl, 2 mM TCEP, 10% glycerol; identical, independent binding sites model; n counts importins for each NPM pentamer
Conditions: both partners purified

T1 sequence (P06748 whole entry): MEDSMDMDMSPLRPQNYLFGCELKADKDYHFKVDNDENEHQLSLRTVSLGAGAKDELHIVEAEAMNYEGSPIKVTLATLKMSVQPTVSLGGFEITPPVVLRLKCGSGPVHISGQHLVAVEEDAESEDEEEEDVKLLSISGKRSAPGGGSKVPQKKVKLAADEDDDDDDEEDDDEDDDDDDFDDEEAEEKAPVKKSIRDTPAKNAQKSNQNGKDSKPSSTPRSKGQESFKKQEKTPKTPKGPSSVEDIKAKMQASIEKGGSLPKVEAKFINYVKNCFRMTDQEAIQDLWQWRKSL

B1: importin α (receptor)
chain: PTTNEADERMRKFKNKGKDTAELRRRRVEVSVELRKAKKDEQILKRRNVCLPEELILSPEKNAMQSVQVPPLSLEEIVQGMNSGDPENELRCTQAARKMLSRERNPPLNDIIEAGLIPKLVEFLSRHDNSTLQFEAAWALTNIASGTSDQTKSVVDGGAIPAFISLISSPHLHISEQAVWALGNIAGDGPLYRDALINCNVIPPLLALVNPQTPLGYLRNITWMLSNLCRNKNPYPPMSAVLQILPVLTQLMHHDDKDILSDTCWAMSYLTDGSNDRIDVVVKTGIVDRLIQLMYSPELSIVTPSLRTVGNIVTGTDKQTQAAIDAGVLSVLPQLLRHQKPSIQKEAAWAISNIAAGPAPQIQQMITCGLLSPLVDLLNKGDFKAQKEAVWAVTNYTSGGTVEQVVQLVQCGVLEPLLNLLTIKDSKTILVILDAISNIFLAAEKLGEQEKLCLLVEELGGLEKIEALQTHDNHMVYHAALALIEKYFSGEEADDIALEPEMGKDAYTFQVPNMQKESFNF
  Kd: 703 ± 347 nM
  dH: -10.9 ± 4 kcal/mol
  stoichiometry N: 5 ± 0.2

B2: importin Δα (importin α lacking the importin β binding (IBB) motif) (domain or fragment)
chain: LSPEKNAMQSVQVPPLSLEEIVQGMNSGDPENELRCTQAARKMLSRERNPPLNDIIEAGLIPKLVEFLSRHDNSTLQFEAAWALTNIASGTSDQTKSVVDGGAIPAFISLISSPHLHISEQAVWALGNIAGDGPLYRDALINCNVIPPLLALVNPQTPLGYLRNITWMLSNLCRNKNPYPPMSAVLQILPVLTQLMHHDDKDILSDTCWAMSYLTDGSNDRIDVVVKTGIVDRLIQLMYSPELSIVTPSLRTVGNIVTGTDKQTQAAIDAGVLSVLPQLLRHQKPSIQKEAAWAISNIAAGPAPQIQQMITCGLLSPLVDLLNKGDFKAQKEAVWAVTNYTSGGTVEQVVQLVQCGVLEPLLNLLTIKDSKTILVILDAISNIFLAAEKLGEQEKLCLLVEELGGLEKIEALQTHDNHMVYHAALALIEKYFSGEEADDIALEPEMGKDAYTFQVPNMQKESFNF
  Kd: 295 ± 20 nM
  dH: -14.3 ± 3.5 kcal/mol
  stoichiometry N: 4.9 ± 0.2
